Results on nine molecules are retold here after paper PMC7545097, “Mapping the native interaction surfaces of PREP1 with PBX1 by cross-linking mass-spectrometry and mutagenesis” (Scientific Reports, 2020).

Sequences and labels used below:
T1: PREP1_(1-436), wild-type recombinant (TR-FIA) (UniProt P55347 1-436)
T1 construct: also called wild-type PREP1; PKNOX1; source: E. coli, purified
T1 sequence (looked up): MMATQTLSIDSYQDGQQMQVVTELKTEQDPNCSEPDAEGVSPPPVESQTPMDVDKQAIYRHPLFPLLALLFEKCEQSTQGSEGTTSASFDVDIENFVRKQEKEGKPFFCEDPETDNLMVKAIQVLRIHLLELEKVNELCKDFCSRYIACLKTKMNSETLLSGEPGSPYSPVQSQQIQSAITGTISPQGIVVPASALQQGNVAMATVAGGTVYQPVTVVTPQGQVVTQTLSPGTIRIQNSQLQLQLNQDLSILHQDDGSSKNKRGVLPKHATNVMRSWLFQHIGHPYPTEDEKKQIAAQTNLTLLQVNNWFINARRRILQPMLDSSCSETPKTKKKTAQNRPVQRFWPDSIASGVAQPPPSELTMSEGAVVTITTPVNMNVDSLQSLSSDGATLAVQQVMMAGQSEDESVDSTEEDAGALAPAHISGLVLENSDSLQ

B1: PBX1 I84A (natural protein, human, UniProt P40424 1-430, looked up)
chain: MDEQPRLMHSHAGVGMAGHPGLSQHLQDGAGGTEGEGGRKQDIGDILQQIMTITDQSLDEAQARKHALNCHRMKPALFNVLCEAKEKTVLSIRGAQEEEPTDPQLMRLDNMLLAEGVAGPEKGGGSAAAAAAAAASGGAGSDNSVEHSDYRAKLSQIRQIYHTELEKYEQACNEFTTHVMNLLREQSRTRPISPKEIERMVSIIHRKFSSIQMQLKQSTCEAVMILRSRFLDARRKRRNFNKQATEILNEYFYSHLSNPYPSEEAKEELAKKCGITVSQVSNWFGNKRIRYKKNIGKFQEEANIYAAKTAVTATNVSAHGSQANSPSTPNSAGSSSSFNMSNSGDLFMSVQSLNGDSYQGAQVGANVQSQVDTLRHVISQTGGYSDGLAASQMYSPQGISANGGWQDATTPSSVTSPTEGPGSVHSDTSN
notes: PBX1, residues 1-430; source: E. coli, purified
B2: PBX1 L105A/L108A/L112A (natural protein, human, UniProt P40424 1-430, looked up)
chain: MDEQPRLMHSHAGVGMAGHPGLSQHLQDGAGGTEGEGGRKQDIGDILQQIMTITDQSLDEAQARKHALNCHRMKPALFNVLCEIKEKTVLSIRGAQEEEPTDPQAMRADNMALAEGVAGPEKGGGSAAAAAAAAASGGAGSDNSVEHSDYRAKLSQIRQIYHTELEKYEQACNEFTTHVMNLLREQSRTRPISPKEIERMVSIIHRKFSSIQMQLKQSTCEAVMILRSRFLDARRKRRNFNKQATEILNEYFYSHLSNPYPSEEAKEELAKKCGITVSQVSNWFGNKRIRYKKNIGKFQEEANIYAAKTAVTATNVSAHGSQANSPSTPNSAGSSSSFNMSNSGDLFMSVQSLNGDSYQGAQVGANVQSQVDTLRHVISQTGGYSDGLAASQMYSPQGISANGGWQDATTPSSVTSPTEGPGSVHSDTSN
notes: as for B1
B3: PBX1 L108A (natural protein, human, UniProt P40424 1-430, looked up)
chain: MDEQPRLMHSHAGVGMAGHPGLSQHLQDGAGGTEGEGGRKQDIGDILQQIMTITDQSLDEAQARKHALNCHRMKPALFNVLCEIKEKTVLSIRGAQEEEPTDPQLMRADNMLLAEGVAGPEKGGGSAAAAAAAAASGGAGSDNSVEHSDYRAKLSQIRQIYHTELEKYEQACNEFTTHVMNLLREQSRTRPISPKEIERMVSIIHRKFSSIQMQLKQSTCEAVMILRSRFLDARRKRRNFNKQATEILNEYFYSHLSNPYPSEEAKEELAKKCGITVSQVSNWFGNKRIRYKKNIGKFQEEANIYAAKTAVTATNVSAHGSQANSPSTPNSAGSSSSFNMSNSGDLFMSVQSLNGDSYQGAQVGANVQSQVDTLRHVISQTGGYSDGLAASQMYSPQGISANGGWQDATTPSSVTSPTEGPGSVHSDTSN
notes: PBX1, residues 1-430; single alanine substitution; source: E. coli, purified
B4: PBX1 L77A/I84A (natural protein, human, UniProt P40424 1-430, looked up)
chain: MDEQPRLMHSHAGVGMAGHPGLSQHLQDGAGGTEGEGGRKQDIGDILQQIMTITDQSLDEAQARKHALNCHRMKPAAFNVLCEAKEKTVLSIRGAQEEEPTDPQLMRLDNMLLAEGVAGPEKGGGSAAAAAAAAASGGAGSDNSVEHSDYRAKLSQIRQIYHTELEKYEQACNEFTTHVMNLLREQSRTRPISPKEIERMVSIIHRKFSSIQMQLKQSTCEAVMILRSRFLDARRKRRNFNKQATEILNEYFYSHLSNPYPSEEAKEELAKKCGITVSQVSNWFGNKRIRYKKNIGKFQEEANIYAAKTAVTATNVSAHGSQANSPSTPNSAGSSSSFNMSNSGDLFMSVQSLNGDSYQGAQVGANVQSQVDTLRHVISQTGGYSDGLAASQMYSPQGISANGGWQDATTPSSVTSPTEGPGSVHSDTSN
notes: as for B1
B5: PBX1 L105A/L108A (natural protein, human, UniProt P40424 1-430, looked up)
chain: MDEQPRLMHSHAGVGMAGHPGLSQHLQDGAGGTEGEGGRKQDIGDILQQIMTITDQSLDEAQARKHALNCHRMKPALFNVLCEIKEKTVLSIRGAQEEEPTDPQAMRADNMLLAEGVAGPEKGGGSAAAAAAAAASGGAGSDNSVEHSDYRAKLSQIRQIYHTELEKYEQACNEFTTHVMNLLREQSRTRPISPKEIERMVSIIHRKFSSIQMQLKQSTCEAVMILRSRFLDARRKRRNFNKQATEILNEYFYSHLSNPYPSEEAKEELAKKCGITVSQVSNWFGNKRIRYKKNIGKFQEEANIYAAKTAVTATNVSAHGSQANSPSTPNSAGSSSSFNMSNSGDLFMSVQSLNGDSYQGAQVGANVQSQVDTLRHVISQTGGYSDGLAASQMYSPQGISANGGWQDATTPSSVTSPTEGPGSVHSDTSN
notes: as for B1
B6: PBX1 L81A (natural protein, human, UniProt P40424 1-430, looked up)
chain: MDEQPRLMHSHAGVGMAGHPGLSQHLQDGAGGTEGEGGRKQDIGDILQQIMTITDQSLDEAQARKHALNCHRMKPALFNVACEIKEKTVLSIRGAQEEEPTDPQLMRLDNMLLAEGVAGPEKGGGSAAAAAAAAASGGAGSDNSVEHSDYRAKLSQIRQIYHTELEKYEQACNEFTTHVMNLLREQSRTRPISPKEIERMVSIIHRKFSSIQMQLKQSTCEAVMILRSRFLDARRKRRNFNKQATEILNEYFYSHLSNPYPSEEAKEELAKKCGITVSQVSNWFGNKRIRYKKNIGKFQEEANIYAAKTAVTATNVSAHGSQANSPSTPNSAGSSSSFNMSNSGDLFMSVQSLNGDSYQGAQVGANVQSQVDTLRHVISQTGGYSDGLAASQMYSPQGISANGGWQDATTPSSVTSPTEGPGSVHSDTSN
notes: as for B1
B7: PBX1 L105A (natural protein, human, UniProt P40424 1-430, looked up)
chain: MDEQPRLMHSHAGVGMAGHPGLSQHLQDGAGGTEGEGGRKQDIGDILQQIMTITDQSLDEAQARKHALNCHRMKPALFNVLCEIKEKTVLSIRGAQEEEPTDPQAMRLDNMLLAEGVAGPEKGGGSAAAAAAAAASGGAGSDNSVEHSDYRAKLSQIRQIYHTELEKYEQACNEFTTHVMNLLREQSRTRPISPKEIERMVSIIHRKFSSIQMQLKQSTCEAVMILRSRFLDARRKRRNFNKQATEILNEYFYSHLSNPYPSEEAKEELAKKCGITVSQVSNWFGNKRIRYKKNIGKFQEEANIYAAKTAVTATNVSAHGSQANSPSTPNSAGSSSSFNMSNSGDLFMSVQSLNGDSYQGAQVGANVQSQVDTLRHVISQTGGYSDGLAASQMYSPQGISANGGWQDATTPSSVTSPTEGPGSVHSDTSN
notes: as for B3
B8: PBX1 L77A/V80A (natural protein, human, UniProt P40424 1-430, looked up)
chain: MDEQPRLMHSHAGVGMAGHPGLSQHLQDGAGGTEGEGGRKQDIGDILQQIMTITDQSLDEAQARKHALNCHRMKPAAFNALCEIKEKTVLSIRGAQEEEPTDPQLMRLDNMLLAEGVAGPEKGGGSAAAAAAAAASGGAGSDNSVEHSDYRAKLSQIRQIYHTELEKYEQACNEFTTHVMNLLREQSRTRPISPKEIERMVSIIHRKFSSIQMQLKQSTCEAVMILRSRFLDARRKRRNFNKQATEILNEYFYSHLSNPYPSEEAKEELAKKCGITVSQVSNWFGNKRIRYKKNIGKFQEEANIYAAKTAVTATNVSAHGSQANSPSTPNSAGSSSSFNMSNSGDLFMSVQSLNGDSYQGAQVGANVQSQVDTLRHVISQTGGYSDGLAASQMYSPQGISANGGWQDATTPSSVTSPTEGPGSVHSDTSN
notes: as for B1
B9: PBX1 L77A/V80A/L81A (natural protein, human, UniProt P40424 1-430, looked up)
chain: MDEQPRLMHSHAGVGMAGHPGLSQHLQDGAGGTEGEGGRKQDIGDILQQIMTITDQSLDEAQARKHALNCHRMKPAAFNAACEIKEKTVLSIRGAQEEEPTDPQLMRLDNMLLAEGVAGPEKGGGSAAAAAAAAASGGAGSDNSVEHSDYRAKLSQIRQIYHTELEKYEQACNEFTTHVMNLLREQSRTRPISPKEIERMVSIIHRKFSSIQMQLKQSTCEAVMILRSRFLDARRKRRNFNKQATEILNEYFYSHLSNPYPSEEAKEELAKKCGITVSQVSNWFGNKRIRYKKNIGKFQEEANIYAAKTAVTATNVSAHGSQANSPSTPNSAGSSSSFNMSNSGDLFMSVQSLNGDSYQGAQVGANVQSQVDTLRHVISQTGGYSDGLAASQMYSPQGISANGGWQDATTPSSVTSPTEGPGSVHSDTSN
notes: as for B1

The target of this test is T1, PREP1_(1-436), wild-type recombinant …. Put plainly: time-resolved fluorescence immunoassay (TR-FIA); plate coated with monoclonal anti-PBX1; PBX1 pre-incubated with PREP1 or MEIS1 for 1 h on ice, 10 µg/mL in 1% BSA PBS, 1 h at room temperature on the plate; detected with anti-PREP1 or biotinylated anti-MEIS1/2 and Eu^3+ conjugates; normalised to the wild-type protein taken as 1. Particulars: both partners purified.
For B1, the binding result is recorded as “binds”. The result for B2 reads “binds”; that for B3, “binds”.

B4: the binding result was “binds”. The same measure for B5: “binds”. The same measure for B6: “binds”; for B7: “binds”. The result for B8 reads “binds”. Turning to B9, the binding result is listed as “binds”.
